Measurements: patent US20160114035A1

Columns and labels:
Test in all cases: binding to purified HLA
Conditions in all cases: chains peptide; modification not given
DRB1*0101 = biological target: DRB1*0101
DRB1*0301 = biological target: DRB1*0301
DRB1*0401 = biological target: DRB1*0401
DRB1*0404 = biological target: DRB1*0404
DRB1*0405 = biological target: DRB1*0405
DRB1*0701 = biological target: DRB1*0701
DRB1*0802 = biological target: DRB1*0802
DRB1*0901 = biological target: DRB1*0901
DRB1*1101 = biological target: DRB1*1101
DRB1*1302 = biological target: DRB1*1302
DRB1*1501 = biological target: DRB1*1501
DRB4*0101 = biological target: DRB4*0101
DRB5*0101 = biological target: DRB5*0101

IC50 (DRB1*0101): 4 nM
IC50 (DRB1*0301): 289 nM
IC50 (DRB1*0401): 1.4 nM
IC50 (DRB1*0404): 0.79 nM
IC50 (DRB1*0405): 32 nM
IC50 (DRB1*0701): 97 nM
IC50 (DRB1*0802): 9.5 nM
IC50 (DRB1*0901): 50 nM
IC50 (DRB1*1101): 9.1 nM
IC50 (DRB1*1302): 367 nM
IC50 (DRB1*1501): 37 nM
IC50 (DRB4*0101): 447 nM
IC50 (DRB5*0101): 19 nM
Binder: AKFVAAWTLKAAA [SEQ ID NO: 3]
